Experimental data as given in patent CN110964118A (UNIV CHINA PHARMA, dated 2020).

What was measured:
[1] = molecular target: 转化生长因子-β1 (TGF-β1) (human, UniProt P01137 279-390); test: SPR (Biacore X100), cG7-sTGFBR2 captured by anti-human IgG(Fc) on a CM5 chip, TGF-β1 as analyte, 25℃
[2] = molecular target: T1, CD24裸肽 (CD24 naked peptide, SPR analyte) (human, UniProt P25063 27-59, limits assumed); test: SPR (Biacore X100), cG7-sTGFBR2 captured by anti-human IgG(Fc) on a CM5 chip, CD24 naked peptide as analyte, 25℃
T1 construct: also called 抗原CD24
T1 peptide (looked up): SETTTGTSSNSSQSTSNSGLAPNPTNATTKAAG

Chain of 转化生长因子-β1 (TGF-β1) (P01137 279-390 limits assumed): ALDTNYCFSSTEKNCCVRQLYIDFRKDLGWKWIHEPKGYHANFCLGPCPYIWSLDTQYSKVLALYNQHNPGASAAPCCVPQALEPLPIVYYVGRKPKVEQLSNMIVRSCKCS

B1: 靶向CD24的双特异性融合抗体cG7-sTGFBR2 (anti-CD24 humanized chimeric antibody cG7 fused at the heavy chain C-terminus via Gly4Ser to the human TGFBR2 extracellular domain … (bispecific antibody, human IgG1, kappa)
heavy: not shown
light: DIVMTQTPLSLSVTIGQPASISCKSSQSLLHSDGKTYLNWLLQRPGQSPKRLIYLVSKLDSGVPDRFTGSGSGTDFTLKVSRVEAEDLGVYYCWQGAHFPYTFGGGTKLEIKVDTVAAPSVFIFPPSDEQLKSGTASVVCLLNNFYPREAKVQWKVDNALQSGNSQESVTEQDSKDSTYSLSSTLTLSKADYEKHKVYACEVTHQGLSSPVTKSFNRGEC
notes: also called 融合双特异性抗体cG7-sTGFBR2
Kd [1]: 55.5 nM
koff [1]: 0.0636 s⁻¹
kon [1]: 1.15e+06 M⁻¹ s⁻¹
Kd [2]: 0.122 nM
koff [2]: 1.14e-05 s⁻¹
kon [2]: 93700 M⁻¹ s⁻¹
